# Key:
# [1] = biological target: recombinant CD81-LEL protein (large extracellular loop of human CD81) with a GST tag (human) (UniProt P60033); assay: DPI, E2 protein added to immobilised CD81 together with small molecule 689002
# [2] = biological target: recombinant CD81-LEL protein (large extracellular loop of human CD81) with a GST tag (human) (UniProt P60033); assay: DPI, E2 protein added to immobilised CD81 together with small molecules 93033 and 165665
# [3] = biological target: recombinant CD81-LEL protein (large extracellular loop of human CD81) with a GST tag (human) (UniProt P60033); assay: DPI, E2 protein added to immobilised CD81 together with small molecules 30930 and 68365 (so in the source)
# [4] = biological target: recombinant CD81-LEL protein (large extracellular loop of human CD81) with a GST tag (human) (UniProt P60033); assay: DPI, E2 protein added to immobilised CD81 together with small molecule 93033
# [5] = biological target: recombinant CD81-LEL protein (large extracellular loop of human CD81) with a GST tag (human) (UniProt P60033); assay: DPI, E2 protein added to immobilised CD81 together with small molecule 30930
# [6] = biological target: recombinant CD81-LEL protein (large extracellular loop of human CD81) with a GST tag (human) (UniProt P60033); assay: DPI, E2 protein added to immobilised CD81 together with small molecules 93033 and 16631
# [7] = biological target: recombinant CD81-LEL protein (large extracellular loop of human CD81) with a GST tag (human) (UniProt P60033); assay: DPI, E2 protein alone added to immobilised CD81
# [8] = biological target: recombinant CD81-LEL protein (large extracellular loop of human CD81) with a GST tag (human) (UniProt P60033); assay: DPI, E2 protein added to immobilised CD81 together with small molecules 689002 and 93033
# [9] = biological target: recombinant CD81-LEL protein (large extracellular loop of human CD81) with a GST tag (human) (UniProt P60033); assay: DPI, E2 protein added to immobilised CD81 together with small molecule 165665
substance,measurement,setting,value
HCV E2 protein (ligand),DPI Binding Response (Radians),[1],2.7 Radians
same,DPI Binding Response (Radians),[2],0.765 Radians
same,DPI Binding Response (Radians),[3],1.45 Radians
same,DPI Binding Response (Radians),[4],0.255 Radians
same,DPI Binding Response (Radians),[5],2.53 Radians
same,DPI Binding Response (Radians),[6],0.531 Radians
same,DPI Binding Response (Radians),[7],4.14 Radians
same,DPI Binding Response (Radians),[8],0.401 Radians
same,DPI Binding Response (Radians),[9],-0.0047 Radians

# — patent publication US20150328329A1, “LIGANDS THAT TARGET HCV-E2 BINDING SITES ON CD81 AND THERAPEUTIC METHODS USING THEM” (American University of Cairo, priority 2012, published 2015)
